Values belong to the molecule of their own block, whether it stands above or below them. Positions of bridges follow the written chain, without caps; N, C: chain ends. Primed or numbered codes have the meaning given here. No end group written: not given here. *: point of attachment. dimannose = dimannose sugar chain attached to the residue; GlcNAc(3) = GlcNAc attached to the Cys side chain; Biotin = O=C1N[C@H]2[C@H](CS[C@H]2CCCCC(=O)*)N1; disialo = disialo sugar chain; GlcNAc = N-acetylglucosamine
Legend:
[1] = target: somatostatin receptors SSTR1-SSTR5 (receptor not singled out in the sentence); assay: competitive radioligand binding
[2] = target: Somatostatin receptor SSTR2 (UniProt P30874 1-369, limits assumed); assay: cell-based or functional assay
Somatostatin receptor SSTR2, sequence (P30874 whole entry): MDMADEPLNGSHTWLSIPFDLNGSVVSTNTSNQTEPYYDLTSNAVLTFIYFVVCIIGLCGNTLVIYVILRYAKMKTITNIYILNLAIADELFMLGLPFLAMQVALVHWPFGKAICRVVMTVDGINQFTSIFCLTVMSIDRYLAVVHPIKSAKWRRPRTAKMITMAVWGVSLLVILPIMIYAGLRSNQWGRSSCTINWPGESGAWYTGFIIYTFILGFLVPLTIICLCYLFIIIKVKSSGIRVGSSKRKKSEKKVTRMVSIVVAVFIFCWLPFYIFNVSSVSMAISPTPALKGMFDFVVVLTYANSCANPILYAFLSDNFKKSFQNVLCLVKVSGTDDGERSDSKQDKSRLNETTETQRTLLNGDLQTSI

[3] = target: Somatostatin receptor SSTR3 (human recombinant, CHO-K1 cells) (human, UniProt P32745 1-418); assay: competitive radioligand binding
Somatostatin receptor SSTR3 (human recombinant, CHO-K1 cells), sequence (P32745 whole entry): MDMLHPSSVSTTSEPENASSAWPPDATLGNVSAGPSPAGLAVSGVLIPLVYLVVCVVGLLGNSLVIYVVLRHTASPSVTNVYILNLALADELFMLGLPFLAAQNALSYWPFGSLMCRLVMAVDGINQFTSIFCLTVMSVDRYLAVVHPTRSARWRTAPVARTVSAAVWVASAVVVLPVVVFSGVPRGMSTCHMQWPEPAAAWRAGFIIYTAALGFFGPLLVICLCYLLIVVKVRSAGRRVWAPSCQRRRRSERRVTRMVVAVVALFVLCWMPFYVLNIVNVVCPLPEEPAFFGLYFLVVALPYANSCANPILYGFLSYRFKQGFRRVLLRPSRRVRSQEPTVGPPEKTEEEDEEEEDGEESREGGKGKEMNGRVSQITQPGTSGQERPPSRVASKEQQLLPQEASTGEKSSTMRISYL

[4] = target: somatostatin receptor SSTR4 (Human, UniProt P31391 1-388); assay: cell-based or functional assay
somatostatin receptor SSTR4, sequence (P31391 whole entry): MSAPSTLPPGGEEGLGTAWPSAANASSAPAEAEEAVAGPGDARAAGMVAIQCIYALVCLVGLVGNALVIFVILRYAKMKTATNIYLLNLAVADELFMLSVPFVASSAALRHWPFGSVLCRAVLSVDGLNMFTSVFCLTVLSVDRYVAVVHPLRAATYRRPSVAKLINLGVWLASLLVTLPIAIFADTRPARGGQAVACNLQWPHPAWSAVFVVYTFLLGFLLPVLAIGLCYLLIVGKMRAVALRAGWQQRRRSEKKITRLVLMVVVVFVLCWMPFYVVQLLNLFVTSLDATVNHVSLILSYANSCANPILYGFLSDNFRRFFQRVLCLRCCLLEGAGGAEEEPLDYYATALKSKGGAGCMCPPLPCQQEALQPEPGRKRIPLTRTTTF

[5] = target: T1, somatostatin receptor SSTR2 (Human, UniProt P30874 1-369); assay: cell-based or functional assay
T1 sequence (P30874 whole entry): as the sequence (P30874 whole entry) above

[6] = target: somatostatin receptor SSTR2 (human) (UniProt P30874); assay: competitive radioligand binding
somatostatin receptor SSTR2 (human), sequence (P30874 whole entry): as above

[7] = target: somatostatin receptor SSTR1 (human) (UniProt P30872); assay: competitive radioligand binding
somatostatin receptor SSTR1 (human), sequence (P30872 whole entry): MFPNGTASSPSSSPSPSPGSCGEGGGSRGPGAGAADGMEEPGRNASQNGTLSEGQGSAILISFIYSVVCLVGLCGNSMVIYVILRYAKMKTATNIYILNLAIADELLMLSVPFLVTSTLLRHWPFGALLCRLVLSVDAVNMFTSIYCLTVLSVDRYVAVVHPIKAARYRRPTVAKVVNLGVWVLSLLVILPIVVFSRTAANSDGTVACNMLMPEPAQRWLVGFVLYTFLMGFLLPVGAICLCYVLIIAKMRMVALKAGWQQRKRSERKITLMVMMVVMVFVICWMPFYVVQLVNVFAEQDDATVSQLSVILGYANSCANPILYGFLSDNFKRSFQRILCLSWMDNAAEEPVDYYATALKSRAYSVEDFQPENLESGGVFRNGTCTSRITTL

[8] = target: somatostatin receptor SSTR1 (Human, UniProt P30872 1-391); assay: competitive radioligand binding
somatostatin receptor SSTR1, sequence (P30872 whole entry): as above

[9] = target: somatostatin receptor SSTR3 (Human, UniProt P32745 1-418); assay: competitive radioligand binding
somatostatin receptor SSTR3, sequence (P32745 whole entry): as the sequence (P32745 whole entry) above

[10] = target: T1, somatostatin receptor SSTR2; assay: competitive radioligand binding
[11] = target: Somatostatin receptor SSTR1 (human recombinant, CHO-K1 cells) (human, UniProt P30872 1-391); assay: competitive radioligand binding
Somatostatin receptor SSTR1 (human recombinant, CHO-K1 cells), sequence (P30872 whole entry): as the sequence (P30872 whole entry) above

[12] = target: Somatostatin receptor SSTR5 (UniProt P35346 1-364, limits assumed); assay: cell-based or functional assay
Somatostatin receptor SSTR5, sequence (P35346 whole entry): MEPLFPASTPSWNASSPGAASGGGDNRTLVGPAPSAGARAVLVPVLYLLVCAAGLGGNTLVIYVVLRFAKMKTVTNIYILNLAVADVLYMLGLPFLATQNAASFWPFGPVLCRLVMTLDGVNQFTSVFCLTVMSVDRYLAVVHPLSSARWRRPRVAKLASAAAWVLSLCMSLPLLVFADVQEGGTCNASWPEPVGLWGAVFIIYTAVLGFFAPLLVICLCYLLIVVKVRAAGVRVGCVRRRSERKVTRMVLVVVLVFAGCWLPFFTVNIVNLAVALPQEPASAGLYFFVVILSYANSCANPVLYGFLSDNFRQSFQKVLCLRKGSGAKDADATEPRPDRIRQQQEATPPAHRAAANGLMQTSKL

[13] = target: Somatostatin receptor SSTR4 (UniProt P31391 1-388, limits assumed); assay: cell-based or functional assay
Somatostatin receptor SSTR4, sequence (P31391 whole entry): as the sequence (P31391 whole entry) above

ratio of Ki to the Ki of unglycosylated SRIF14 [1]: 15.7 ratio (:1)
Molecule: S1C(disialo).N5C(disialo)-SRIF28 (peptide)

fold difference in Ki against the glycosylated forms of Examples 1 and 21 [1]: 10 fold
B1: S1C(disialo).N5C(disialo).A9C(disialo)-SRIF28 (peptide)
peptide: C(disialo sugar chain)ANSC(disialo sugar chain)PAMC(disialo sugar chain)PRERKAGCKNFFWKTFTSC
modifications: disulfide 17-28

IC50 of cAMP production suppressing action (agonist activity) [2]: 80 pM
B2: S1C(disialo).N19C(GlcNAc)-SRIF28 (peptide)
peptide: C(disialo sugar chain)ANSNPAMAPRERKAGCKC(GlcNAc)FFWKTFTSC
modifications: disulfide 17-28

IC50 [3]: 7000 pM
B3: 29C(disialo)-SRIF28 (peptide)
peptide: SANSNPAMAPRERKAGCKNFFWKTFTSCC
modifications: disialo sugar chain attached Cys added after Cys28 (position 29); disulfide bond Cys17-Cys28

IC50 of cAMP production suppressing action (agonist activity) [2]: 40 pM
B4: S1C(GlcNAc)-SRIF28 (peptide)
peptide: C(GlcNAc(3))ANSNPAMAPRERKAGCKNFFWKTFTSC
modifications: disulfide 17-28

IC50 of cAMP production suppressing action (agonist activity) [4]: 65 pM
IC50 of cAMP production suppressing action (agonist activity) [5]: 75 pM
B5: S1C(disialo)-SRIF28 (peptide)
peptide: C(disialo sugar chain)ANSNPAMAPRERKAGCKNFFWKTFTSC
modifications: disulfide 17-28

Ki as fold of that of SRIF14 [6]: 310 to 5300 fold
Ki as fold of that of SRIF14 [7]: 310 to 5300 fold
Ki [8]: > 828000 pM
Ki [9]: > 342000 pM
Ki [10]: > 531000 pM
B6: F25C(disialo)-SRIF28 (peptide)
peptide: SANSNPAMAPRERKAGCKNFFWKTC(disialo)TSC
modifications: disulfide 17-28

Ki [10]: 3000 pM
B7: S1N(disialo).N19C(diMan)-SRIF28 (peptide)
peptide: N(disialo sugar chain)ANSNPAMAPRERKAGCKC(dimannose)FFWKTFTSC
modifications: disulfide 17-28

Ki [10]: 700 pM
B8: S1C(disialo)-SRIF28-amide (peptide)
peptide: C(disialo sugar chain)ANSNPAMAPRERKAGCKNFFWKTFTSC-NH2
modifications: disulfide 17-28

Ki [9]: 1000 pM
B9: Biotin-S1C(disialo)-SRIF28 (peptide)
peptide: Biotin-C(disialo sugar chain)ANSNPAMAPRERKAGCKNFFWKTFTSC
modifications: disulfide 17-28

IC50 [11]: 30000 pM
B10: N5C(disialo).A9C(disialo)-SRIF28 (peptide)
peptide: SANSC(disialo)PAMC(disialo)PRERKAGCKNFFWKTFTSC
modifications: disulfide 17-28

IC50 of cAMP production suppressing action (agonist activity) [12]: 90 pM
B11: S1C(disialo).N5C(disialo)-SRIF28 (peptide)
peptide: C(disialo sugar chain)ANSC(disialo sugar chain)PAMAPRERKAGCKNFFWKTFTSC
modifications: disulfide 17-28

IC50 of cAMP production suppressing action (agonist activity) [13]: 50 pM
B12: S1C(diGlcNAc)-SRIF28 (peptide)
peptide: C(diGlcNAc sugar chain)ANSNPAMAPRERKAGCKNFFWKTFTSC
modifications: disulfide 17-28

— US20160368961A1 (GLYTECH, published 2016)
